According to the supplement of paper PMC10065799, “High-throughput profiling of sequence recognition by tyrosine kinases and SH2 domains using bacterial peptide display” (eLife, 2023):
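Wherever SH2 binding enrichment of the phosphorylated peptide, bacterial display is given: peptide library displayed on the E. coli surface as eCPX fusions, selected cells deep-sequenced, score is each peptide's frequency after selection divided by its frequency in the input.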
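Wherever phosphorylation enrichment, bacterial display is given: 11-residue human phosphosite peptides and single-mutation variants displayed on the E. coli surface, counted by deep sequencing, each peptide's frequency after selection divided by its frequency in the unselected input library; frequency after pTyr selection over input frequency; kinase dosed for 20-30% of maximal phosphorylation in three min.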

These sequences were tested on c-Src (assay: phosphorylation enrichment, bacterial display (enrichment ratio); higher = better substrate or ligand; peptides without Tyr show the background).
AEFGLYGAMVW [VSX2_Y222_R227W_YF] showed a phosphorylation enrichment of 2.69. In the case of ILILKYPIEHG [ACTA1_Y71_T68I], the phosphorylation enrichment is reported as 0.491. VTGWGYRKLRE [F11_Y521_D526E] showed a phosphorylation enrichment of 0.578. FCRHNYGAVES [HLA-DRB1_Y112_V114A_YF] was tested, and the phosphorylation enrichment was 0.527. Sequence SLDLSYFTTSS [EMD_Y181_P183T_YF] has a phosphorylation enrichment of 0.382. Work on DEFLEYRRIVG [FAM221A_Y20_YF] yielded a phosphorylation enrichment of 0.507. SSNLFYRWLTA [CNGA3_Y169_YF] gave a phosphorylation enrichment of 0.398. SSENPYATIKD [MEGF10_Y1030] showed a phosphorylation enrichment of 2.31. GVIKEYQIRQV [USH2A_Y3623] showed a phosphorylation enrichment of 0.372. In the case of MLEAPYVDRNS [F10_Y384_V382A], the phosphorylation enrichment is reported as 0.435. PKGTGYIKTEL [STAT1_Y701] was tested, and the phosphorylation enrichment was 0.635. With TIQRMYGCDVG [HLA-A_Y123_I121R] the phosphorylation enrichment was 0.594. SFCFRYRCAPR [SUMF1_Y344_A348P_YF] was tested, and the phosphorylation enrichment was 0.701. For ISRVLYPNDNF [PYGM_Y281], the phosphorylation enrichment was 0.477. For CDLTDYLMKIL [ACTA1_Y190_R185C], the phosphorylation enrichment was 0.394. Sequence MSPPGYKLVTG [GJA1_Y286] has a phosphorylation enrichment of 0.429. FMYKVYSDPQP [FGFR1_Y280_C277Y] showed a phosphorylation enrichment of 0.495. For LYEDCYLLGTS [ASS1_Y87_R86C], the phosphorylation enrichment was 4.68. YDCKWYIPLTD [BCR_Y756] showed a phosphorylation enrichment of 0.69. EKMWTYMRSAE [GRIA4_Y695] gave a phosphorylation enrichment of 0.404. With TMKSRYMELFD [BBS2_Y644_YF] the phosphorylation enrichment was 0.418. With TESNNYIFKTL [FAM83B_Y637_YF] the phosphorylation enrichment was 0.642. With TDVSLYPSGGT [TENM4_Y399] the phosphorylation enrichment was 0.269. With RLEGVYGNNID [PTEN_Y46_R47G] the phosphorylation enrichment was 1.26. Sequence YDGGCYEQLFV [MC4R_Y41_S36Y] has a phosphorylation enrichment of 2.71. Sequence KLQQWYREHRS [GPI_Y17] has a phosphorylation enrichment of 0.384. Sequence APVEDYGGGGG [B4GALT6_Y382_I379V] has a phosphorylation enrichment of 0.392. Work on SRIWVYNHYRW [BRCA2_Y2621] yielded a phosphorylation enrichment of 0.402. RWGQKHMTAVV [CYBA_Y72_Y72H] showed a phosphorylation enrichment of 0.496. CGTPTCLAPEV [CHEK2_Y390_Y390C] was tested, and the phosphorylation enrichment was 0.454. With SVIVPYEPPEV [TP53_Y220_V217I] the phosphorylation enrichment was 0.445. Sequence SHNKYYMLVAR [MFSD8_Y134] has a phosphorylation enrichment of 0.487. FLTLHYDAKPQ [ANG_Y38_Q36L] showed a phosphorylation enrichment of 0.312.

Each sequence was assayed against Grb2 SH2 (UniProt P62993) (assay: SH2 binding enrichment of the phosphorylated peptide, bacterial display (enrichment ratio); higher = better substrate or ligand; peptides without Tyr show the background).
Grb2 SH2, sequence (P62993 whole entry, looked up): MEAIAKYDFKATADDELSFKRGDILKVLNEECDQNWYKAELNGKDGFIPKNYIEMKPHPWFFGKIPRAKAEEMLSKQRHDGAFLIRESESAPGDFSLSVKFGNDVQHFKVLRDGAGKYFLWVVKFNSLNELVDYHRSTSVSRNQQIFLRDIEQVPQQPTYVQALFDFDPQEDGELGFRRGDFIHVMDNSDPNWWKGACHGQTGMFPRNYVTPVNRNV
AEFGLYGAMVW [VSX2_Y222_R227W_YF] was tested, and the SH2 binding enrichment was 0.805. Sequence ILILKYPIEHG [ACTA1_Y71_T68I] has an SH2 binding enrichment of 2.07. VTGWGYRKLRE [F11_Y521_D526E] showed an SH2 binding enrichment of 0.63. Work on FCRHNYGAVES [HLA-DRB1_Y112_V114A_YF] yielded an SH2 binding enrichment of 1. With SLDLSYFTTSS [EMD_Y181_P183T_YF] the SH2 binding enrichment was 0.803. For DEFLEYRRIVG [FAM221A_Y20_YF], the SH2 binding enrichment was 0.945. For SSNLFYRWLTA [CNGA3_Y169_YF], the SH2 binding enrichment was 0.692. Sequence SSENPYATIKD [MEGF10_Y1030] has an SH2 binding enrichment of 0.985. For GVIKEYQIRQV [USH2A_Y3623], the SH2 binding enrichment was 0.902. With MLEAPYVDRNS [F10_Y384_V382A] the SH2 binding enrichment was 0.827. PKGTGYIKTEL [STAT1_Y701] showed an SH2 binding enrichment of 0.93. TIQRMYGCDVG [HLA-A_Y123_I121R] gave an SH2 binding enrichment of 0.636. SFCFRYRCAPR [SUMF1_Y344_A348P_YF] gave an SH2 binding enrichment of 0.783. Sequence ISRVLYPNDNF [PYGM_Y281] has an SH2 binding enrichment of 0.743. CDLTDYLMKIL [ACTA1_Y190_R185C] showed an SH2 binding enrichment of 0.973. In the case of MSPPGYKLVTG [GJA1_Y286], the SH2 binding enrichment is reported as 0.701. With FMYKVYSDPQP [FGFR1_Y280_C277Y] the SH2 binding enrichment was 0.8. Work on LYEDCYLLGTS [ASS1_Y87_R86C] yielded an SH2 binding enrichment of 0.933. YDCKWYIPLTD [BCR_Y756] gave an SH2 binding enrichment of 0.863. EKMWTYMRSAE [GRIA4_Y695] was tested, and the SH2 binding enrichment was 0.842. With TMKSRYMELFD [BBS2_Y644_YF] the SH2 binding enrichment was 0.945. TESNNYIFKTL [FAM83B_Y637_YF] showed an SH2 binding enrichment of 0.879. TDVSLYPSGGT [TENM4_Y399] showed an SH2 binding enrichment of 0.577. Sequence RLEGVYGNNID [PTEN_Y46_R47G] has an SH2 binding enrichment of 0.713. YDGGCYEQLFV [MC4R_Y41_S36Y] was tested, and the SH2 binding enrichment was 0.742. Sequence KLQQWYREHRS [GPI_Y17] has an SH2 binding enrichment of 1.37. APVEDYGGGGG [B4GALT6_Y382_I379V] was tested, and the SH2 binding enrichment was 0.764. In the case of SRIWVYNHYRW [BRCA2_Y2621], the SH2 binding enrichment is reported as 1.14. Sequence RWGQKHMTAVV [CYBA_Y72_Y72H] has an SH2 binding enrichment of 1.68. CGTPTCLAPEV [CHEK2_Y390_Y390C] gave an SH2 binding enrichment of 0.904. SVIVPYEPPEV [TP53_Y220_V217I] gave an SH2 binding enrichment of 0.731. SHNKYYMLVAR [MFSD8_Y134] showed an SH2 binding enrichment of 1.77. Work on FLTLHYDAKPQ [ANG_Y38_Q36L] yielded an SH2 binding enrichment of 0.783.

These sequences were tested against SHP2-C SH2 in the same assay as above.
AEFGLYGAMVW [VSX2_Y222_R227W_YF] gave an SH2 binding enrichment of 0.656. Work on ILILKYPIEHG [ACTA1_Y71_T68I] yielded an SH2 binding enrichment of 1.72. In the case of VTGWGYRKLRE [F11_Y521_D526E], the SH2 binding enrichment is reported as 0.375. For FCRHNYGAVES [HLA-DRB1_Y112_V114A_YF], the SH2 binding enrichment was 0.816. In the case of SLDLSYFTTSS [EMD_Y181_P183T_YF], the SH2 binding enrichment is reported as 0.675. Work on DEFLEYRRIVG [FAM221A_Y20_YF] yielded an SH2 binding enrichment of 1. SSNLFYRWLTA [CNGA3_Y169_YF] was tested, and the SH2 binding enrichment was 0.591. With SSENPYATIKD [MEGF10_Y1030] the SH2 binding enrichment was 9.45. GVIKEYQIRQV [USH2A_Y3623] showed an SH2 binding enrichment of 0.689. With MLEAPYVDRNS [F10_Y384_V382A] the SH2 binding enrichment was 0.743. In the case of PKGTGYIKTEL [STAT1_Y701], the SH2 binding enrichment is reported as 0.893. TIQRMYGCDVG [HLA-A_Y123_I121R] gave an SH2 binding enrichment of 0.968. SFCFRYRCAPR [SUMF1_Y344_A348P_YF] gave an SH2 binding enrichment of 0.584. ISRVLYPNDNF [PYGM_Y281] was tested, and the SH2 binding enrichment was 0.626. CDLTDYLMKIL [ACTA1_Y190_R185C] was tested, and the SH2 binding enrichment was 0.647. In the case of MSPPGYKLVTG [GJA1_Y286], the SH2 binding enrichment is reported as 0.512. FMYKVYSDPQP [FGFR1_Y280_C277Y] gave an SH2 binding enrichment of 0.854. Work on LYEDCYLLGTS [ASS1_Y87_R86C] yielded an SH2 binding enrichment of 0.314. YDCKWYIPLTD [BCR_Y756] was tested, and the SH2 binding enrichment was 0.707. EKMWTYMRSAE [GRIA4_Y695] gave an SH2 binding enrichment of 0.726. With TMKSRYMELFD [BBS2_Y644_YF] the SH2 binding enrichment was 0.634. TESNNYIFKTL [FAM83B_Y637_YF] gave an SH2 binding enrichment of 1.2. TDVSLYPSGGT [TENM4_Y399] gave an SH2 binding enrichment of 0.8. Sequence RLEGVYGNNID [PTEN_Y46_R47G] has an SH2 binding enrichment of 0.444. For YDGGCYEQLFV [MC4R_Y41_S36Y], the SH2 binding enrichment was 0.623. KLQQWYREHRS [GPI_Y17] was tested, and the SH2 binding enrichment was 1.12. In the case of APVEDYGGGGG [B4GALT6_Y382_I379V], the SH2 binding enrichment is reported as 0.768. For SRIWVYNHYRW [BRCA2_Y2621], the SH2 binding enrichment was 1.1. RWGQKHMTAVV [CYBA_Y72_Y72H] gave an SH2 binding enrichment of 1.66. For CGTPTCLAPEV [CHEK2_Y390_Y390C], the SH2 binding enrichment was 0.932. SVIVPYEPPEV [TP53_Y220_V217I] showed an SH2 binding enrichment of 0.712. With SHNKYYMLVAR [MFSD8_Y134] the SH2 binding enrichment was 15.5. Sequence FLTLHYDAKPQ [ANG_Y38_Q36L] has an SH2 binding enrichment of 0.844.

Each sequence was assayed against c-Src SH2 in the same assay as above.
In the case of AEFGLYGAMVW [VSX2_Y222_R227W_YF], the SH2 binding enrichment is reported as 0.457. ILILKYPIEHG [ACTA1_Y71_T68I] was tested, and the SH2 binding enrichment was 1.58. VTGWGYRKLRE [F11_Y521_D526E] showed an SH2 binding enrichment of 0.584. FCRHNYGAVES [HLA-DRB1_Y112_V114A_YF] gave an SH2 binding enrichment of 1.05. SLDLSYFTTSS [EMD_Y181_P183T_YF] gave an SH2 binding enrichment of 0.55. DEFLEYRRIVG [FAM221A_Y20_YF] gave an SH2 binding enrichment of 0.53. In the case of SSNLFYRWLTA [CNGA3_Y169_YF], the SH2 binding enrichment is reported as 0.466. For SSENPYATIKD [MEGF10_Y1030], the SH2 binding enrichment was 14. GVIKEYQIRQV [USH2A_Y3623] gave an SH2 binding enrichment of 0.501. MLEAPYVDRNS [F10_Y384_V382A] was tested, and the SH2 binding enrichment was 0.439. For PKGTGYIKTEL [STAT1_Y701], the SH2 binding enrichment was 0.446. TIQRMYGCDVG [HLA-A_Y123_I121R] showed an SH2 binding enrichment of 0.479. Work on SFCFRYRCAPR [SUMF1_Y344_A348P_YF] yielded an SH2 binding enrichment of 0.486. In the case of ISRVLYPNDNF [PYGM_Y281], the SH2 binding enrichment is reported as 0.446. Sequence CDLTDYLMKIL [ACTA1_Y190_R185C] has an SH2 binding enrichment of 0.664. With MSPPGYKLVTG [GJA1_Y286] the SH2 binding enrichment was 0.286. FMYKVYSDPQP [FGFR1_Y280_C277Y] showed an SH2 binding enrichment of 0.768. LYEDCYLLGTS [ASS1_Y87_R86C] gave an SH2 binding enrichment of 0.962. YDCKWYIPLTD [BCR_Y756] showed an SH2 binding enrichment of 0.597. Sequence EKMWTYMRSAE [GRIA4_Y695] has an SH2 binding enrichment of 0.442. TMKSRYMELFD [BBS2_Y644_YF] was tested, and the SH2 binding enrichment was 4.89. With TESNNYIFKTL [FAM83B_Y637_YF] the SH2 binding enrichment was 0.492. TDVSLYPSGGT [TENM4_Y399] gave an SH2 binding enrichment of 0.405. Work on RLEGVYGNNID [PTEN_Y46_R47G] yielded an SH2 binding enrichment of 0.408. Work on YDGGCYEQLFV [MC4R_Y41_S36Y] yielded an SH2 binding enrichment of 0.598. In the case of KLQQWYREHRS [GPI_Y17], the SH2 binding enrichment is reported as 1.26. In the case of APVEDYGGGGG [B4GALT6_Y382_I379V], the SH2 binding enrichment is reported as 0.425. In the case of SRIWVYNHYRW [BRCA2_Y2621], the SH2 binding enrichment is reported as 1.17. RWGQKHMTAVV [CYBA_Y72_Y72H] showed an SH2 binding enrichment of 1.6. For CGTPTCLAPEV [CHEK2_Y390_Y390C], the SH2 binding enrichment was 0.608. Sequence SVIVPYEPPEV [TP53_Y220_V217I] has an SH2 binding enrichment of 1.28. For SHNKYYMLVAR [MFSD8_Y134], the SH2 binding enrichment was 1.92. In the case of FLTLHYDAKPQ [ANG_Y38_Q36L], the SH2 binding enrichment is reported as 0.653.
